Reference: patent US20200277366A1 (UCB, published 2020)
Where “and” joins values, the source holds several entries; their conditions need not be identical. Equal entries are not always repeated.

B1: CA2109 IgG (recombinant rat/mouse chimeric IgG, rat variable regions on mouse gamma-1 / mouse kappa) (antibody, V domains shown)
VH: EVQLHQSGAALVKPGASVKLSCKTSGYTFTDNYIHWVKQSPGKSLEWIGYINPSSAYAHYNEKFKTKATLTVDKSTNTAYMELSRLTSEDSATYFCTRRYYSAMPFAYWGQGTLVTVSS
VL: DIVMTQSPASLSASLGETVTIECRASEDIYNGLAWYQQKPGKSPHLLIYNSNTLHTGVPSRFSGTGSGTQYSLKINSLQSEDVATYFCQQNYDFPLTFGSGTKLELK
notes: Rat variable regions cloned into mouse gamma-1 IgG and mouse kappa expression vectors, expressed in HEK-293; also called fwk18 IgG
B2: 02109 rat/human chimeric Fab (Fab, V domains shown)
VH: B1 VH
VL: B1 VL
notes: Rat variable regions with human Fab constant regions; not the humanised graft; also called CA2109

How the values were obtained:
human TNF-alpha [1] = biological target: T1, human TNF-alpha (human, UniProt P01375 77-233); assay: SPR (Biacore T200), mouse IgG captured by anti-mouse IgG Fc, human TNF injected at 20 nM
T1 construct: also called hTNF; human TNFα
Procedure: Recombinant rat/mouse chimeric IgG and Fab molecules were screened in the HEK-293-CD40-BLUE reporter assay at a number of concentrations to enable the calculation of EC50 values and determine the maximum percentage inhibition. […] IgG were also analysed in a Biacore experiment to determine binding affinities for human TNF. The assay format of the Biacore experiment was capture of the mouse IgG by immobilised anti-mouse IgG-Fc then titration of human TNF over the captured surface. BIA (Biamolecular Interaction Analysis) was performed using a Biacore T200 (GE Healthcare). Affinipure F(ab′)2 Fragment goat anti-mouse IgG, Fc fragment specific (Jackson ImmunoResearch) was immobilised on a CM5 Sensor Chip via amine coupling chemistry to a level of ˜5000 response units (RUs). HBS-EP buffer (10 mM HEPES pH 7.4, 0.15 M NaCl, 3 mM EDTA, 0.05% Surfactant P20, GE Healthcare) was used as the running buffer with a flow rate of 10 μL/min. A 10 μL injection of mouse IgG at 0.5 μg/mL was used for capture by the immobilised anti-mouse IgG-Fc. Human TNF, was injected over the captured mouse IgG twice at 20 nM at a flow rate of 30 μL/min. The surface was regenerated by 2×10 μL injection of 40 mM HCl, interspersed by a 5 μL injection of 5 mM NaOH at a flowrate of 10 μL/min. Background subtraction binding curves were analysed using the T200evaluation software (version 1.0) following standard procedures.
Neutralisation was determined using the HEK-293-CD40-BLUE reporter assay (Invivogen). […] Biacore analysis was performed to determine binding kinetics.

human TNF-alpha [2] = biological target: T1, human TNF-alpha; assay: cell-based or functional assay
cynomolgus TNF-alpha = biological target: T2, cynomolgus TNF-alpha (cynomolgus, UniProt P79337 77-233); assay: SPR (Biacore T200), Fab captured by anti-human F(ab')2, cynomolgus TNF at 3.125 nM
T2 construct: also called cyno TNF; cTNF
Procedure: (§1) The assay format of the Biacore experiment was capture of the rat/human chimeric Fabs by immobilised anti-human F(ab′) then titration of human or cynomolgus TNF over the captured surface. BIA (Biamolecular Interaction Analysis) was performed using a Biacore T200 (GE Healthcare). Affinipure F(ab′)2 Fragment goat anti-human IgG-F(ab′)2 fragment specific (Jackson ImmunoResearch) was immobilised on a CM5 Sensor Chip via amine coupling chemistry to a level of ˜5000 response units (RUs). HBS-EP buffer (10 mM HEPES pH 7.4, 0.15 M NaCl, 3 mM EDTA, 0.05% Surfactant P20, GE Healthcare) was used as the running buffer with a flow rate of 10 μL/min. A 10 μL injection of rat/human chimeric at 0.5 μg/mL was used for capture by the immobilised human IgG-F(ab′)2. Human or cynomolgus TNF, was injected over the captured rat/human chimeric Fab at (5 nM or 3.125 nM respectively) at a flow rate of 30 μL/min. The surface was regenerated by 2×10 μL injection of 50 mM HCl, interspersed by a 5 μL injection of 5 mM NaOH at a flowrate of 10 μL/min. Background subtraction binding curves were analysed using the T200evaluation software (version 1.0) following standard procedures.

human TNF-alpha [3] = biological target: T1, human TNF-alpha; assay: SPR (Biacore T200), Fab captured by anti-human F(ab')2, human TNF at 5 nM
Procedure: as §1

| Kd (human TNF-alpha [1]) [nM] | koff (human TNF-alpha [1]) [s⁻¹] | kon (human TNF-alpha [1]) [M⁻¹ s⁻¹] | EC50 (ng/ml), HEK-293-CD40-BLUE reporter assay (human TNF-alpha [2]) [ng/mL] | Kd (cynomolgus TNF-alpha) | koff (cynomolgus TNF-alpha) [s⁻¹] | kon (cynomolgus TNF-alpha) [M⁻¹ s⁻¹] | Kd (human TNF-alpha [3]) | koff (human TNF-alpha [3]) [s⁻¹] | kon (human TNF-alpha [3]) [M⁻¹ s⁻¹] | Binder |
| --- | --- | --- | --- | --- | --- | --- | --- | --- | --- | --- |
| 0.025 | 0.000119 | 4.7e+06 | 0.31 |  |  |  |  |  |  | B1 |
|  |  |  |  | 0.0274 nM and 0.027 nM | 0.000102 | 3.71e+06 | 0.0349 nM and 0.035 nM | 0.000143 | 4.09e+06 | B2 |
